biological target: FZD1/2/4/5/7/8; assay: cell-based or functional assay

% Wnt Maxima Avg	EC50 (nM), TOPFLASH assay	Maximal Signal (% Wnt3a maxima) (% Wnt3a maxima)	Topflash EC50 (nM) Avg	Binder
57%	0.3 nM	57	0.3 nM	CT0001 (bispecific antibody) heavy 1: EVQLVESGGGLVQPGGSLRLSCAASGFNIHSSSIHWVRQAPGKGLEWVAATYSSFGSITYADSVKGRFTISADTSKNTAYLQMNSLRAEDTAVYYCARYHHPFGYALDYWGQGTLVTVSSASTKGPSVFPLAPSSKSTSGGTAALGCLVKDYFPEPVTVSWNSGALTSGVHTFPAVLQSSGLYSLSSVVTVPSSSLGTQTYICNVNHKPSNTKVDKKVEPKSCDKTHTCPPCPAPELLGGPSVFLFPPKPKDTLMISRTPEVTCVVVDVSHEDPEVKFNWYVDGVEVHNAKTKPREEQYNSTYRVVSVLTVLHQDWLNGKEYKCKVSNKALPAPIEKTISKAKGQPREPQVYTLPPIRELMTSNQVSLSCAVKGFYPSDIAVEWESNGQPENNYKTTPPVLDSDGSFFLVSKLTVDKSRWQQGNVFSCSVMHEALHNHYTQKSLSLSPGKSGSETPGTSESATPESGGGEVQLVESGGGLVQPGGSLRLSCAASGFNISSYYIHWVRQAPGKGLEWVASIYSSYGYTSYADSVKGRFTISADTSKNTAYLQMNSLRAEDTAVYYCARTVRGSKKPYFSGWAMDYWGQGTLVTVSSGGGGSDIQMTQSPSSLSASVGDRVTITCRASQSVSSAVAWYQQKPGKAPKLLIYSASSLYSGVPSRFSGSRSGTDFTLTISSLQPEDFATYYCQQYSWGPFTFGQGTKVEIK heavy 2: EVQLVESGGGLVQPGGSLRLSCAASGFNIHSSSIHWVRQAPGKGLEWVAATYSSFGSITYADSVKGRFTISADTSKNTAYLQMNSLRAEDTAVYYCARYHHPFGYALDYWGQGTLVTVSSASTKGPSVFPLAPSSKSTSGGTAALGCLVKDYFPEPVTVSWNSGALTSGVHTFPAVLQSSGLYSLSSVVTVPSSSLGTQTYICNVNHKPSNTKVDKKVEPKSCDKTHTCPPCPAPELLGGPSVFLFPPKPKDTLMISRTPEVTCVVVDVSHEDPEVKFNWYVDGVEVHNAKTKPREEQYNSTYRVVSVLTVLHQDWLNGKEYKCKVSNKALPAPIEKTISKAKGQPREPMVFDLPPSREEMTKNQVSLWCMVKGFYPSDIAVEWESNGQPENNYKTTPPVLDSDGSFFLYSKLTVDKSRWQQGNVFSCSVMHEALHNHYTQKSLSLSPGKSGSETPGTSESATPESGGGEVQLVESGGGLVQPGGSLRLSCAASGFNISYSSIHWVRQAPGKGLEWVAYISSYYGYTYYADSVKGRFTISADTSKNTAYLQMNSLRAEDTAVYYCARAHYFPWAGAMDYWGQGTLVTVSSGGGGSDIQMTQSPSSLSASVGDRVTITCRASQSVSSAVAWYQQKPGKAPKLLIYSASSLYSGVPSRFSGSRSGTDFTLTISSLQPEDFATYYCQQYYWPITFGQGTKVEIK light: DIQMTQSPSSLSASVGDRVTITCRASQSVSSAVAWYQQKPGKAPKLLIYSASSLYSGVPSRFSGSRSGTDFTLTISSLQPEDFATYYCQQGVYLFTFGQGTKVEIKRTVAAPSVFIFPPSDEQLKSGTASVVCLLNNFYPREAKVQWKVDNALQSGNSQESVTEQDSKDSTYSLSSTLTLSKADYEKHKVYACEVTHQGLSSPVTKSFNRGEC
49%	0.7 nM	50	0.7 nM	ANT-1 (bispecific antibody) heavy 1: MNLLLILTFVAAAVAEFEVQLVESGGGLVQPGGSLRLSCAASGFNISSYYIHWVRQAPGKGLEWVASIYSSYGYTSYADSVKGRFTISADTSKNTAYLQMNSLRAEDTAVYYCARTVRGSKKPYFSGWAMDYWGQGTLVTVSSGGGGSDIQMTQSPSSLSASVGDRVTITCRASQSVSSAVAWYQQKPGKAPKLLIYSASSLYSGVPSRFSGSRSGTDFTLTISSLQPEDFATYYCQQYYFLITFGQGTKVEIKLEDKTHTKVEPKSSDKTHNCPPCPAPELLGGPSVFLFPPKPKDTLMISRTPEVTCVVVDVSHEDPEVKFNWYVDGVEVHNAKTKPREEQYNSTYRVVSVLTVLHQDWLNGKEYKCKVSNKALPAPIEKTISKAKGQPREPQVYTLPPIRELMTSNQVSLSCAVKGFYPSDIAVEWESNGQPENNYKTTPPVLDSDGSFFLVSKLTVDKSRWQQGNVFSCSVMHEALHNHYTQKSLSLSPGKSGSETPGTSESATPESGGGEVQLVESGGGLVQPGGSLRLSCAASGFNIHSSSIHWVRQAPGKGLEWVAATYSSFGSITYADSVKGRFTISADTSKNTAYLQMNSLRAEDTAVYYCARYHHPFGYALDYWGQGTLVTVSSASTKGPSVFPLAPSSKSTSGGTAALGCLVKDYFPEPVTVSWNSGALTSGVHTFPAVLQSSGLYSLSSVVTVPSSSLGTQTYICNVNHKPSNTKVDKKVEPKSCDKTHT heavy 2: MNLLLILTFVAAAVAEFEVQLVESGGGLVQPGGSLRLSCAASGFNISYSSIHWVRQAPGKGLEWVASISPYYGYTYYADSVKGRFTISADTSKNTAYLQMNSLRAEDTAVYYCARSSYFPWFSAMDYWGQGTLVTVSSGGGGSDIQMTQSPSSLSASVGDRVTITCRASQSVSSAVAWYQQKPGKAPKLLIYSASSLYSGVPSRFSGSRSGTDFTLTISSLQPEDFATYYCQQYYWPITFGQGTKVEIKLEDKTHTKVEPKTSDKTHTCPPCPAPELLGGPSVFLFPPKPKDTLMISRTPEVTCVVVDVSHEDPEVKFNWYVDGVEVHNAKTKPREEQYNSTYRVVSVLTVLHQDWLNGKEYKCKVSNKALPAPIEKTISKAKGQPREPMVFDLPPSREEMTKNQVSLWCMVKGFYPSDIAVEWESNGQPENNYKTTPPVLDSDGSFFLYSKLTVDKSRWQQGNVFSCSVMHEALHNHYTQKSLSLSPGKSGSETPGTSESATPESGGGEVQLVESGGGLVQPGGSLRLSCAASGFNIHSSSIHWVRQAPGKGLEWVAATYSSFGSITYADSVKGRFTISADTSKNTAYLQMNSLRAEDTAVYYCARYHHPFGYALDYWGQGTLVTVSSASTKGPSVFPLAPSSKSTSGGTAALGCLVKDYFPEPVTVSWNSGALTSGVHTFPAVLQSSGLYSLSSVVTVPSSSLGTQTYICNVNHKPSNTKVDKKVEPKSCDKTHT light: DIQMTQSPSSLSASVGDRVTITCRASQSVSSAVAWYQQKPGKAPKLLIYSASSLYSGVPSRFSGSRSGTDFTLTISSLQPEDFATYYCQQGVYLFTFGQGTKVEIKRTVAAPSVFIFPPSDEQLKSGTASVVCLLNNFYPREAKVQWKVDNALQSGNSQESVTEQDSKDSTYSLSSTLTLSKADYEKHKVYACEVTHQGLSSPVTKSFNRGEC
52%	0.3 nM	52	0.3 nM	CM0126 (Dia-Fc-Dia) (bispecific antibody) chain 1: MNLLLILTFVAAAVAEFEVQLVESGGGLVQPGGSLRLSCAASGFNIHSSSIHWVRQAPGKGLEWVAATYSSFGSITYADSVKGRFTISADTSKNTAYLQMNSLRAEDTAVYYCARYHHPFGYALDYWGQGTLVTVSSGGGGSDIQMTQSPSSLSASVGDRVTITCRASQSVSSAVAWYQQKPGKAPKLLIYSASSLYSGVPSRFSGSRSGTDFTLTISSLQPEDFATYYCQQGVYLFTFGQGTKVEIKLEDKTHTKVEPKSSDKTHNCPPCPAPELLGGPSVFLFPPKPKDTLMISRTPEVTCVVVDVSHEDPEVKFNWYVDGVEVHNAKTKPREEQYNSTYRVVSVLTVLHQDWLNGKEYKCKVSNKALPAPIEKTISKAKGQPREPQVYTLPPIRELMTSNQVSLSCAVKGFYPSDIAVEWESNGQPENNYKTTPPVLDSDGSFFLVSKLTVDKSRWQQGNVFSCSVMHEALHNHYTQKSLSLSPGKSGSETPGTSESATPESGGGEVQLVESGGGLVQPGGSLRLSCAASGFNISSYYIHWVRQAPGKGLEWVASIYSSYGYTSYADSVKGRFTISADTSKNTAYLQMNSLRAEDTAVYYCARTVRGSKKPYFSGWAMDYWGQGTLVTVSSGGGGSDIQMTQSPSSLSASVGDRVTITCRASQSVSSAVAWYQQKPGKAPKLLIYSASSLYSGVPSRFSGSRSGTDFTLTISSLQPEDFATYYCQQYSWGPFTFGQGTKVEIK chain 2: MNLLLILTFVAAAVAEFEVQLVESGGGLVQPGGSLRLSCAASGFNIHSSSIHWVRQAPGKGLEWVAATYSSFGSITYADSVKGRFTISADTSKNTAYLQMNSLRAEDTAVYYCARYHHPFGYALDYWGQGTLVTVSSGGGGSDIQMTQSPSSLSASVGDRVTITCRASQSVSSAVAWYQQKPGKAPKLLIYSASSLYSGVPSRFSGSRSGTDFTLTISSLQPEDFATYYCQQGVYLFTFGQGTKVEIKLEDKTHTKVEPKTSDKTHTCPPCPAPELLGGPSVFLFPPKPKDTLMISRTPEVTCVVVDVSHEDPEVKFNWYVDGVEVHNAKTKPREEQYNSTYRVVSVLTVLHQDWLNGKEYKCKVSNKALPAPIEKTISKAKGQPREPMVFDLPPSREEMTKNQVSLWCMVKGFYPSDIAVEWESNGQPENNYKTTPPVLDSDGSFFLYSKLTVDKSRWQQGNVFSCSVMHEALHNHYTQKSLSLSPGKSGSETPGTSESATPESGGGEVQLVESGGGLVQPGGSLRLSCAASGFNISYSSIHWVRQAPGKGLEWVAYISSYYGYTYYADSVKGRFTISADTSKNTAYLQMNSLRAEDTAVYYCARAHYFPWAGAMDYWGQGTLVTVSSGGGGSDIQMTQSPSSLSASVGDRVTITCRASQSVSSAVAWYQQKPGKAPKLLIYSASSLYSGVPSRFSGSRSGTDFTLTISSLQPEDFATYYCQQYYWPITFGQGTKVEIK
